Results published in article PMC7382501 (Nature Communications, 2020).

B1: FasR from Mycobacterium tuberculosis, full-length (hexa-histidine-TEV-tagged construct, tag cleaved) (natural protein)
chain: MSDLAKTAQRRALRSSGSARPDEDVPAPNRRGNRLPRDERRGQLLVVASDVFVDRGYHAAGMDEIADRAGVSKPVLYQHFSSKLELYLAVLHRHVENLVSGVHQALSTTTDNRQRLHVAVQAFFDFIEHDSQGYRLIFENDFVTEPEVAAQVRVATESCIDAVFALISADSGLDPHRARMIAVGLVGMSVDCARYWLDADKPISKSDAVEGTVQFAWGGLSHVPLTRS
B2: His-tagged FasR (FasRwt, from pET28_fasRH) (natural protein)
chain: B1 chain
notes: not shown: His6, N-terminal, kept

Target: the molecule itself
Assay: SEC

Protein	stoichiometry N
B1	2
B2	2
